These results are taken from patent publication US9487562B2, “Stabilized polypeptides as regulators of RAB GTPase function” (President and Fellows of Harvard College, priority 2011, dated 2016).

The test system of assay [1] is AKT phosphorylated at S473 (p473-AKT). Put plainly: AKT phosphorylation at S473 in OVCAR3 cells (Western blot). More on the design: dose or concentration left out as unconfirmed. To be noted: OVCAR3 cells treated with RFP26 for 24 hours. It is filed as cell-based, Human. The text has this:
AKT, also known as Protein Kinase B (PKB), is a serine/threonine-specific protein kinase that is associated with tumor cell survival, proliferation, and invasiveness. The activation of AKT is also one of the most frequent alterations observed in human cancer and tumor cells, thus deregulation of the AKT plays a pivotal role in tumor biology (Stuenaes et al., Br. J. Pharmacol. (2010) 160(1):116-29). Full AKT activation requires phosphorylation by activating kinases on two residues: threonine 308 (T308) and serine 473 (S473). Hyperactivation of AKT is associated with resistance to apoptosis as well as increased cell proliferation and metabolism. […] To assess the affect of RFP26 on AKT phosphorylation in OVCAR3 cells, OVCAR3 cells were treated with […] RFP26 for 24 hours. The cells were then lysed, and the lysate was used in a Western blot to detect AKT phosphorylated at S473 (p473-AKT) and total AKT (FIG. 25A).

Assay [2] addresses T1, RAB25 (Homo sapiens, UniProt P57735).
T1 construct: incubated in pre-cleared lysate from OVCAR3 cells, which express RAB11 and RAB25; endogenous in cells; host or cells: OVCAR3
T1 sequence (P57735 1-213): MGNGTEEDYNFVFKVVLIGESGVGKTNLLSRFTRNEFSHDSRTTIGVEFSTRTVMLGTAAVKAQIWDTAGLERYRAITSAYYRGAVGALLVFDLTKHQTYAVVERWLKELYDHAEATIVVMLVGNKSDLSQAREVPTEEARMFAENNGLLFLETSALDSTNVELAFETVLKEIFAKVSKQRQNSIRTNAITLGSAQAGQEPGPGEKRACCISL
Description: Biotin-RFP pulldown from OVCAR3 lysate, Western blot for RAB25. It is filed as binding. To be noted: relative to mock or negative control RFP31. The protocol:
(§1) Optimized RFP peptides were synthesized with an amino-terminal diethyleneglycol-biotin moiety. The peptides were immobilized on streptavidin-agarose resin/beads and incubated in pre-cleared lysate from OVCAR3 cells, which express RAB11 and RAB25. The beads were washed, and the protein was eluted and used for Western blot analysis to identify retained RAB11 and RAB25 (FIG. 24). […] The signal is similar to the relative binding affinities and ALPHASCREEN® IC50 observed for RFP peptides.

The test system of assay [3] is RAB25. Put plainly: Fluorescence polarization binding of FITC-FIP/FITC-RFP peptides to RAB25. On the procedure: (§2) RAB11/25 protein binding assays were performed by incubating FITC-FIP or FITC-RFP (stapled FIP derivatives) peptides (15 nM) with three-fold dilutions of recombinantly-expressed, purified RAB11, RAB25 or a various epitope-tagged version of either in protein-binding buffer (25 mM Tris-HCl, pH 8.0, 150 mM NaCl, 1 mM EDTA, 1 mM DTT, 10 mM MgCl2, 10 mM GTP). Dilutions and incubations were made in 384-well, black flat-bottom plates (Corning) to a total volume of 40 μL and equilibrated for 60 minutes. Polarization was measured on a Spectramax-M5 multi-label plate reader with λex=485 nm and λem=525 nm. Polarization was calculated according to the standard equation: P=(V−H)/(V+H), where P=polarization, V=vertical emission intensity and H=horizontal emission intensity. Kd values were determined by fitting data to a variable-slope sigmoidal binding curve using Prizm 4 graphing software.
(§3) RAB11 and RAB25 proteins were expressed and purified in Escherichia coli strain BL21(DE3) pLysS (Stratagene) as epitope-tagged fusion proteins in various vectors (Novagen). RAB25 (residues E7-Q180) was expressed with an N-terminal GST- and hexahistidine tag with internal thrombin and TEV cleavage sites (GST-H6-RAB25) (SEQ ID NO: 86) in a pET41-1 vector (Novagen) or with an N-terminal hexahistidine tag alone with an internal thrombin cleavage site (H6-RAB25) (SEQ ID NO: 86) in a pET28 vector (Novagen). FIP3 protein (residues 649-756) was expressed with an N-terminal GST-tag with an internal TEV cleavage site (GST-FIP3) in a pGEX6p-1 vector (Novagen). RAB11 (residues 1-175) was expressed with an N-terminal GST-tag with an internal thrombin cleavage site in a pGEX5x-1 vector (Novagen). Transformed bacteria was grown at 37° C. until an OD600=0.8 was reached, at which point the culture was induced with 0.5 mM isopropyl β-D-1-thiogalactopyranoside (IPTG). Induced cells were grown at 30° C. for 6 hours, pelleted and lysed in binding buffer (25 mM Tris-HC;, pH 8.0, 150 mM NaCl, 1 mM EDTA, 1 mM DTT, 10 mM MgCl2, 10 mM GTP) supplemented with a complete protease inhibitor tablet (Roche) by sonication on ice. The lysate was centrifuged at 14,000 rpm to clear insoluble matter prior to loading onto Ni-NTA resin (Qiagen) for hexahistdine-tagged constructs or on GST-bind agarose resin (Biorad) for GST-tagged constructs. The protein-bound bead slurry was washed 4× with ˜20 mL of buffer and retained protein was eluted with either 250 mM imidazole or 20 mM glutathione in buffer for H6-(SEQ ID NO: 86) or GST-proteins, respectively. The eluent was concentrated using a 30 kD exclusion filter and purified by size-exclusion chromatography on a Superdex-75 Column (Amersham Pharmacia Biotech). Fractions containing purified protein were pooled, concentrated and dialyzed into binding buffer or other similar buffer for specific biochemical assays.

Assay [4] deals with T2, RAB25 (Homo sapiens, UniProt P57735).
T2 construct: RAB25 (residues E7-Q180) was expressed with an N-terminal GST- and hexahistidine tag; made in house; host or cells: Escherichia coli BL21(DE3) pLysS
T2 sequence (P57735 7-180): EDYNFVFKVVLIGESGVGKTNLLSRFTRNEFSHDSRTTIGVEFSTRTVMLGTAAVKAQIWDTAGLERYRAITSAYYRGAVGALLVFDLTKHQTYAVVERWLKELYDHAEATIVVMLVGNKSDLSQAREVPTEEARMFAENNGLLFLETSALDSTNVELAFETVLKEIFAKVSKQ
Described as above. The conditions noted are these: FITC peptide 15 nM. The protocol:
as §2, §3

Assay [5] deals with T3, RAB11 (Homo sapiens, UniProt P62491).
T3 construct: RAB11 (residues 1-175) was expressed with an N-terminal GST-tag with an internal thrombin cleavage site; GST (thrombin cleavage site between tag and RAB11) (N); made in house; host or cells: Escherichia coli BL21(DE3) pLysS
T3 sequence (P62491 1-175): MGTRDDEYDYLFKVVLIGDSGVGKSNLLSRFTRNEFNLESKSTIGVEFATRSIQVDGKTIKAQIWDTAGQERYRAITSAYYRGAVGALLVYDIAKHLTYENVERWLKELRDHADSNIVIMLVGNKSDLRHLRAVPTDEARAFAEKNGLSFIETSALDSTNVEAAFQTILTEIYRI
Put plainly: Fluorescence polarization binding of FITC-FIP/FITC-RFP peptides to RAB11. To be noted: FITC peptide 15 nM, fluorescence polarization. The protocol: Fluorescence polarization (FP) was used to measure FIP peptide binding to RAB11 and RAB25 proteins. […] This indicated specificity in the binding measurement, as this subtle change would be expected to perturb binding.
as §2, §3

Assay [6] has as its target T4, RAB11 (Homo sapiens, UniProt P62491).
T4 construct: incubated in pre-cleared lysate from OVCAR3 cells, which express RAB11 and RAB25; endogenous in cells; host or cells: OVCAR3
T4 sequence (P62491 1-216): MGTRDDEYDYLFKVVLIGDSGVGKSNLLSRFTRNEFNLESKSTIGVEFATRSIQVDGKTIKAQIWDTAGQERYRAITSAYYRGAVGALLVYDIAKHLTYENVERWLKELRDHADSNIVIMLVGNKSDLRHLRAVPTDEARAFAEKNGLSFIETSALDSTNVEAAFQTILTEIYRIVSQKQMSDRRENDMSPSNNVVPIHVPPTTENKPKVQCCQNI
Put plainly: Biotin-RFP pulldown from OVCAR3 lysate, Western blot for RAB11. Format: binding. To be noted: relative to mock or negative control RFP31. The protocol:
as §1

Another assay relates to OVCAR3 cells. Put plainly: Transwell migration assay. The conditions noted are these: 15 μM for 24 hours, collagen-coated 8-micron transwells. It is filed as cell-based, Human. On the procedure: OVCAR3 cells were seeded on collagen-coated, 8-micron transwells in DMEM media. Cells were treated with 15 μM RFP26, RFP31 or vehicle for 24 hours during cell migration. The cells in the wells were fixed, and migrating cells were stained and counted (FIGS. 25B and 25C).

“Also recorded” adds a separate entry of the source. Bridge positions count the residues as written; N and C are the ends. Square brackets hold non-standard residues; d marks the D form. Ends that are not written are not given here. S5 = C=CCCC[C@](C)(N)C(=O)O

Regarding “RFP26: stapled FIP peptide containing an E-R mutation to increase overall charge, SEQ ID NO: 83 (RINFRLQN[S5]IDR[S5]IVRINETNPSILRVK; staple 9-13; not fully specified (C-terminus))”, the “AKT phosphorylation at S473” value in assay [1] was “decreased AKT phosphorylation at S473”. In addition, the “binding to and retention of RAB25” value with RAB25 [2] is “significant binding to and retention”. The “relative affinity RAB11 versus RAB25 (selectivity)” value in the assay with RAB25 [3] is given as “some selectivity for RAB25”. Also, the “binding affinity to RAB25” value in the assay with RAB25 [4] was “retained binding affinity; also recorded: high affinity”. Also, the “binding affinity to RAB11” value with RAB11 [5] is “high affinity”. For the same substance, the “binding to and retention of RAB11” value in the assay with RAB11 [6] is “significant binding to and retention”. In addition, the OVCAR3 cellular migration result in the assay on OVCAR3 cells is reported as “inhibited OVCAR3 cellular migration”.
